This passage reports stoichiometry N results from publication PMC11481574.

This assay addresses Vibrio His-FliFG fusion protein with the FliG-G214S mutation (Vibrio alginolyticus). Description: cryo-EM structure; single-particle cryo-EM of the purified, concentrated MS-ring in buffer with LMNG; grids frozen after blotting at 4°C, 100% humidity; two classes with 35- or 34-fold rotational symmetry.

Several values for one entry are separate records, joined by “and”; a condition that tells them apart may be missing. Identical values can stand only once.

The term stoichiometry N denotes a count of units in the complex or per binding partner.

Consider “Vibrio His-FliFG fusion protein with the FliG-G214S mutation”, for which the stoichiometry N is 35 and 34.
